Laboratory results published in IntAct's records for PubMed 39009827.

B1: Epithelial sodium channel subunit beta (Homo sapiens), P51168 (parent)
chain: MHVKKYLLKGLHRLQKGPGYTYKELLVWYCDNTNTHGPKRIICEGPKKKAMWFLLTLLFAALVCWQWGIFIRTYLSWEVSVSLSVGFKTMDFPAVTICNASPFKYSKIKHLLKDLDELMEAVLERILAPELSHANATRNLNFSIWNHTPLVLIDERNPHHPMVLDLFGDNHNGLTSSSASEKICNAHGCKMAMRLCSLNRTQCTFRNFTSATQALTEWYILQATNIFAQVPQQELVEMSYPGEQMILACLFGAEPCNYRNFTSIFYPHYGNCYIFNWGMTEKALPSANPGTEFGLKLILDIGQEDYVPFLASTAGVRLMLHEQRSYPFIRDEGIYAMSGTETSIGVLVDKLQRMGEPYSPCTVNGSEVPVQNFYSDYNTTYSIQACLRSCFQDHMIRNCNCGHYLYPLPRGEKYCNNRDFPDWAHCYSDLQMSVAQRETCIGMCKESCNDTQYKMTISMADWPSEASEDWIFHVLSQERDQSTNITLSRKGIVKLNIYFQEFNYRTIEESAANNIVWLLSNLGGQFGFWMGGSVLCLIEFGEIIIDFVWITIIKLVALAKSLRQRRAQASYAGPPPTVAELVEAHTNFGFQPDTAPRSPNTGPYPSEQALPIPGTPPPNYDSLRLQPLDVIESDSEGDAI
B2: Myosin-9 (Homo sapiens), P35579 (parent)
chain: MAQQAADKYLYVDKNFINNPLAQADWAAKKLVWVPSDKSGFEPASLKEEVGEEAIVELVENGKKVKVNKDDIQKMNPPKFSKVEDMAELTCLNEASVLHNLKERYYSGLIYTYSGLFCVVINPYKNLPIYSEEIVEMYKGKKRHEMPPHIYAITDTAYRSMMQDREDQSILCTGESGAGKTENTKKVIQYLAYVASSHKSKKDQGELERQLLQANPILEAFGNAKTVKNDNSSRFGKFIRINFDVNGYIVGANIETYLLEKSRAIRQAKEERTFHIFYYLLSGAGEHLKTDLLLEPYNKYRFLSNGHVTIPGQQDKDMFQETMEAMRIMGIPEEEQMGLLRVISGVLQLGNIVFKKERNTDQASMPDNTAAQKVSHLLGINVTDFTRGILTPRIKVGRDYVQKAQTKEQADFAIEALAKATYERMFRWLVLRINKALDKTKRQGASFIGILDIAGFEIFDLNSFEQLCINYTNEKLQQLFNHTMFILEQEEYQREGIEWNFIDFGLDLQPCIDLIEKPAGPPGILALLDEECWFPKATDKSFVEKVMQEQGTHPKFQKPKQLKDKADFCIIHYAGKVDYKADEWLMKNMDPLNDNIATLLHQSSDKFVSELWKDVDRIIGLDQVAGMSETALPGAFKTRKGMFRTVGQLYKEQLAKLMATLRNTNPNFVRCIIPNHEKKAGKLDPHLVLDQLRCNGVLEGIRICRQGFPNRVVFQEFRQRYEILTPNSIPKGFMDGKQACVLMIKALELDSNLYRIGQSKVFFRAGVLAHLEEERDLKITDVIIGFQACCRGYLARKAFAKRQQQLTAMKVLQRNCAAYLKLRNWQWWRLFTKVKPLLQVSRQEEEMMAKEEELVKVREKQLAAENRLTEMETLQSQLMAEKLQLQEQLQAETELCAEAEELRARLTAKKQELEEICHDLEARVEEEEERCQHLQAEKKKMQQNIQELEEQLEEEESARQKLQLEKVTTEAKLKKLEEEQIILEDQNCKLAKEKKLLEDRIAEFTTNLTEEEEKSKSLAKLKNKHEAMITDLEERLRREEKQRQELEKTRRKLEGDSTDLSDQIAELQAQIAELKMQLAKKEEELQAALARVEEEAAQKNMALKKIRELESQISELQEDLESERASRNKAEKQKRDLGEELEALKTELEDTLDSTAAQQELRSKREQEVNILKKTLEEEAKTHEAQIQEMRQKHSQAVEELAEQLEQTKRVKANLEKAKQTLENERGELANEVKVLLQGKGDSEHKRKKVEAQLQELQVKFNEGERVRTELADKVTKLQVELDNVTGLLSQSDSKSSKLTKDFSALESQLQDTQELLQEENRQKLSLSTKLKQVEDEKNSFREQLEEEEEAKHNLEKQIATLHAQVADMKKKMEDSVGCLETAEEVKRKLQKDLEGLSQRHEEKVAAYDKLEKTKTRLQQELDDLLVDLDHQRQSACNLEKKQKKFDQLLAEEKTISAKYAEERDRAEAEAREKETKALSLARALEEAMEQKAELERLNKQFRTEMEDLMSSKDDVGKSVHELEKSKRALEQQVEEMKTQLEELEDELQATEDAKLRLEVNLQAMKAQFERDLQGRDEQSEEKKKQLVRQVREMEAELEDERKQRSMAVAARKKLEMDLKDLEAHIDSANKNRDEAIKQLRKLQAQMKDCMRELDDTRASREEILAQAKENEKKLKSMEAEMIQLQEELAAAERAKRQAQQERDELADEIANSSGKGALALEEKRRLEARIAQLEEELEEEQGNTELINDRLKKANLQIDQINTDLNLERSHAQKNENARQQLERQNKELKVKLQEMEGTVKSKYKASITALEAKIAQLEEQLDNETKERQAACKQVRRTEKKLKDVLLQVDDERRNAEQYKDQADKASTRLKQLKRQLEEAEEEAQRANASRRKLQRELEDATETADAMNREVSSLKNKLRRGDLPFVVPRRMARKGAGDGSDEEVDGKADGAEAKPAE
partner: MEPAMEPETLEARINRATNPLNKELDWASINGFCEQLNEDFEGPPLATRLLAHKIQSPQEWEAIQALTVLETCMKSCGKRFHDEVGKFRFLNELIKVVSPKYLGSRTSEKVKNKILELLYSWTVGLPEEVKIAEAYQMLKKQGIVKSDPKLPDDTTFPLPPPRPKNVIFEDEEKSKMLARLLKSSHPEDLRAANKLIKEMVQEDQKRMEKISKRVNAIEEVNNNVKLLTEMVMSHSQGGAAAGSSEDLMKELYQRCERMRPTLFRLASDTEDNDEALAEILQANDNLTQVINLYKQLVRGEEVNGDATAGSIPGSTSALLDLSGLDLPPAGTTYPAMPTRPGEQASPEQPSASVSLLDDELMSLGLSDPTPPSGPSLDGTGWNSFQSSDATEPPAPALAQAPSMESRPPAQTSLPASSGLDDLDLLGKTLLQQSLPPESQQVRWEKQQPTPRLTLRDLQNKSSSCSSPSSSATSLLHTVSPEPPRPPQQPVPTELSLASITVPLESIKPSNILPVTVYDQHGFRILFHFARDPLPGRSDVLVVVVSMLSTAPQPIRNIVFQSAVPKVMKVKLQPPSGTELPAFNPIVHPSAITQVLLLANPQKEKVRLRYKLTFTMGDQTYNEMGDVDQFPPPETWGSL
B3: Protein patched homolog 1 (Homo sapiens), Q13635 (parent)
chain: MASAGNAAEPQDRGGGGSGCIGAPGRPAGGGRRRRTGGLRRAAAPDRDYLHRPSYCDAAFALEQISKGKATGRKAPLWLRAKFQRLLFKLGCYIQKNCGKFLVVGLLIFGAFAVGLKAANLETNVEELWVEVGGRVSRELNYTRQKIGEEAMFNPQLMIQTPKEEGANVLTTEALLQHLDSALQASRVHVYMYNRQWKLEHLCYKSGELITETGYMDQIIEYLYPCLIITPLDCFWEGAKLQSGTAYLLGKPPLRWTNFDPLEFLEELKKINYQVDSWEEMLNKAEVGHGYMDRPCLNPADPDCPATAPNKNSTKPLDMALVLNGGCHGLSRKYMHWQEELIVGGTVKNSTGKLVSAHALQTMFQLMTPKQMYEHFKGYEYVSHINWNEDKAAAILEAWQRTYVEVVHQSVAQNSTQKVLSFTTTTLDDILKSFSDVSVIRVASGYLLMLAYACLTMLRWDCSKSQGAVGLAGVLLVALSVAAGLGLCSLIGISFNAATTQVLPFLALGVGVDDVFLLAHAFSETGQNKRIPFEDRTGECLKRTGASVALTSISNVTAFFMAALIPIPALRAFSLQAAVVVVFNFAMVLLIFPAILSMDLYRREDRRLDIFCCFTSPCVSRVIQVEPQAYTDTHDNTRYSPPPPYSSHSFAHETQITMQSTVQLRTEYDPHTHVYYTTAEPRSEISVQPVTVTQDTLSCQSPESTSSTRDLLSQFSDSSLHCLEPPCTKWTLSSFAEKHYAPFLLKPKAKVVVIFLFLGLLGVSLYGTTRVRDGLDLTDIVPRETREYDFIAAQFKYFSFYNMYIVTQKADYPNIQHLLYDLHRSFSNVKYVMLEENKQLPKMWLHYFRDWLQGLQDAFDSDWETGKIMPNNYKNGSDDGVLAYKLLVQTGSRDKPIDISQLTKQRLVDADGIINPSAFYIYLTAWVSNDPVAYAASQANIRPHRPEWVHDKADYMPETRLRIPAAEPIEYAQFPFYLNGLRDTSDFVEAIEKVRTICSNYTSLGLSSYPNGYPFLFWEQYIGLRHWLLLFISVVLACTFLVCAVFLLNPWTAGIIVMVLALMTVELFGMMGLIGIKLSAVPVVILIASVGIGVEFTVHVALAFLTAIGDKNRRAVLALEHMFAPVLDGAVSTLLGVLMLAGSEFDFIVRYFFAVLAILTILGVLNGLVLLPVLLSFFGPYPEVSPANGLNRLPTPSPEPPPSVVRFAMPPGHTHSGSDSSDSEYSSQTTVSGLSEELRHYEAQQGAGGPAHQVIVEATENPVFAHSTVVHPESRHHPPSNPRQQPHLDSGSLPPGRQGQQPRRDPPREGLWPPPYRPRRDAFEISTEGHSGPSNRARWGPRGARSHNPRNPASTAMGSSVPGYCQPITTVTASASVTVAVHPPPVPGPGRNPRGGLCPGYPETDHGLFEDPHVPFHVRCERRDSKVEVIELQDVECEERPRGSSSN
B4: Cell division control protein 45 homolog (Homo sapiens), O75419 (parent)
chain: MFVSDFRKEFYEVVQSQRVLLFVASDVDALCACKILQALFQCDHVQYTLVPVSGWQELETAFLEHKEQFHYFILINCGANVDLLDILQPDEDTIFFVCDTHRPVNVVNVYNDTQIKLLIKQDDDLEVPAYEDIFRDEEEDEEHSGNDSDGSEPSEKRTRLEEEIVEQTMRRRQRREWEARRRDILFDYEQYEYHGTSSAMVMFELAWMLSKDLNDMLWWAIVGLTDQWVQDKITQMKYVTDVGVLQRHVSRHNHRNEDEENTLSVDCTRISFEYDLRLVLYQHWSLHDSLCNTSYTAARFKLWSVHGQKRLQEFLADMGLPLKQVKQKFQAMDISLKENLREMIEESANKFGMKDMRVQTFSIHFGFKHKFLASDVVFATMSLMESPEKDGSGTDHFIQALDSLSRSNLDKLYHGLELAKKQLRATQQTIASCLCTNLVISQGPFLYCSLMEGTPDVMLFSRPASLSLLSKHLLKSFVCSTKNRRCKLLPLVMAAPLSMEHGTVTVVGIPPETDSSDRKNFFGRAFEKAAESTSSRMLHNHFDLSVIELKAEDRSKFLDALISLLS

Variants of: B1
Conditions: with nedd4_human NEDD4, P46934
Chain of nedd4_human NEDD4, P46934 (P46934 whole entry): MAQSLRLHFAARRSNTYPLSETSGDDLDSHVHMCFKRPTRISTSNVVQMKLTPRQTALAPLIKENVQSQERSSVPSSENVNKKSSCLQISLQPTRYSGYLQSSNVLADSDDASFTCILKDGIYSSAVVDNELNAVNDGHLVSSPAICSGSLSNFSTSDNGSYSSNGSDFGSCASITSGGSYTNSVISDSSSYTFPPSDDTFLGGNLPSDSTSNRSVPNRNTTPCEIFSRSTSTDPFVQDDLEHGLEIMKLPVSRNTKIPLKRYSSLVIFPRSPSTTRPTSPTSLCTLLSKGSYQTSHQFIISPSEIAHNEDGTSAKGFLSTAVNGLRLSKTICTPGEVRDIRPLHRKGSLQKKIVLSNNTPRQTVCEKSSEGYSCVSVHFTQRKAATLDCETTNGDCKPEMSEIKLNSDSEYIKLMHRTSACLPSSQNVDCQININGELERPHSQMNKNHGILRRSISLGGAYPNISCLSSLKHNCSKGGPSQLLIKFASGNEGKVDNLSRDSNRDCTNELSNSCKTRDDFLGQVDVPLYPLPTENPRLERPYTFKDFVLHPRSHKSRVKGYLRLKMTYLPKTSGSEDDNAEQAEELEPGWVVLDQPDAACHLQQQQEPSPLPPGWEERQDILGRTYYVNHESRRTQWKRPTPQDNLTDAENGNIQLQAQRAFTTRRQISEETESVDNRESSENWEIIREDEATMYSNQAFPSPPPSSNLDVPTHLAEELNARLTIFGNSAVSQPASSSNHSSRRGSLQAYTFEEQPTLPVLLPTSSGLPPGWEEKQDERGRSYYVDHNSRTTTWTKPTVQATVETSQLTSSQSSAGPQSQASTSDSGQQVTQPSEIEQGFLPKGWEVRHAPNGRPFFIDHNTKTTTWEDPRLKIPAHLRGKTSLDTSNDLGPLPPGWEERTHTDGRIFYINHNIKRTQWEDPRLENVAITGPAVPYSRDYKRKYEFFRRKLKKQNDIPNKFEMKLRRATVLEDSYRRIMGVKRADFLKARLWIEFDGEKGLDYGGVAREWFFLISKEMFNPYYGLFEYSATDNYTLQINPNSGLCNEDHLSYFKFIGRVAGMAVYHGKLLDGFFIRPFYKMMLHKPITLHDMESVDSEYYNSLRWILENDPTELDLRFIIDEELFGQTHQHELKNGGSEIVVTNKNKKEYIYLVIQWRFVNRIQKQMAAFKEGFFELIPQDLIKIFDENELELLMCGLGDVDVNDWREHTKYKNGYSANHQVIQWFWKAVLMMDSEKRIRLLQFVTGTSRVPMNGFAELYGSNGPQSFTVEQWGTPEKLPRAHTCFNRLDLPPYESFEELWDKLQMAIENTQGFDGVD

Row | effect of a mutation on the interaction | Variant
1 | decreasing interaction strength | P617S

Variants of: B1
Conditions: with wwtr1_human WWTR1, Q9GZV5
Chain of wwtr1_human WWTR1, Q9GZV5 (Q9GZV5 whole entry): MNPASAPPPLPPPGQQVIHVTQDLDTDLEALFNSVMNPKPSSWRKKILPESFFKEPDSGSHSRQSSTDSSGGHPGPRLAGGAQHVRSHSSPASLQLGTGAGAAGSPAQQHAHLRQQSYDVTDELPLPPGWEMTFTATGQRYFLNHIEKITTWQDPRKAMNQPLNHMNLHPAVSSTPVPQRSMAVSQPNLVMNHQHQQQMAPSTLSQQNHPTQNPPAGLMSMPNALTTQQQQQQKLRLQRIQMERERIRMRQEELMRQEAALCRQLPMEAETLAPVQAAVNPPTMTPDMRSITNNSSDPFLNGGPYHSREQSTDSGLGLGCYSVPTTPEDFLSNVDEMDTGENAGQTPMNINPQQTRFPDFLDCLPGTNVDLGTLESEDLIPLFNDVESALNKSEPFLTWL

Row | effect of a mutation on the interaction | Variant
2 | decreasing interaction strength | P617S

Variants of: B2
Conditions: with gga1_human GGA1, Q9UJY5

Row | effect of a mutation on the interaction | Variant
3 | decreasing interaction strength | D1424H

Variants of: B3
Conditions: with ppia_human PPIA

Row | effect of a mutation on the interaction | Variant
4 | decreasing interaction strength | P1180Q

Variants of: B4
Conditions: with ima3_human KPNA4, O00629
Chain of ima3_human KPNA4, O00629 (O00629 whole entry): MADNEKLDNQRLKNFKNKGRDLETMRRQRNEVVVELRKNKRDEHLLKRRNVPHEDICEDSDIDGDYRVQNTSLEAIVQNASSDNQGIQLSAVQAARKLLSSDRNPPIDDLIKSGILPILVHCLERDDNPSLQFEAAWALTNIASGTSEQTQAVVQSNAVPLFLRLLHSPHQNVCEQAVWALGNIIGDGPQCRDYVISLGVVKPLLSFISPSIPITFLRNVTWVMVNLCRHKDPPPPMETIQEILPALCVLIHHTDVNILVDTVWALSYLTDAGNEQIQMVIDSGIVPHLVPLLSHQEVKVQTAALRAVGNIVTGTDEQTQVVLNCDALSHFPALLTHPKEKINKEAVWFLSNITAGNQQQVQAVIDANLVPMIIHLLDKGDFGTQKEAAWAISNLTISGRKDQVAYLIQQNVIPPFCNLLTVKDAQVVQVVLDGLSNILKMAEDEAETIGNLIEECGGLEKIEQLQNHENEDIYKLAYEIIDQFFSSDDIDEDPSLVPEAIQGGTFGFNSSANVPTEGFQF

Row | effect of a mutation on the interaction | Variant
5 | disrupting interaction strength | R157C

Variants of: B4
Conditions: with ima8_human KPNA7, A9QM74
Chain of ima8_human KPNA7, A9QM74 (A9QM74 whole entry): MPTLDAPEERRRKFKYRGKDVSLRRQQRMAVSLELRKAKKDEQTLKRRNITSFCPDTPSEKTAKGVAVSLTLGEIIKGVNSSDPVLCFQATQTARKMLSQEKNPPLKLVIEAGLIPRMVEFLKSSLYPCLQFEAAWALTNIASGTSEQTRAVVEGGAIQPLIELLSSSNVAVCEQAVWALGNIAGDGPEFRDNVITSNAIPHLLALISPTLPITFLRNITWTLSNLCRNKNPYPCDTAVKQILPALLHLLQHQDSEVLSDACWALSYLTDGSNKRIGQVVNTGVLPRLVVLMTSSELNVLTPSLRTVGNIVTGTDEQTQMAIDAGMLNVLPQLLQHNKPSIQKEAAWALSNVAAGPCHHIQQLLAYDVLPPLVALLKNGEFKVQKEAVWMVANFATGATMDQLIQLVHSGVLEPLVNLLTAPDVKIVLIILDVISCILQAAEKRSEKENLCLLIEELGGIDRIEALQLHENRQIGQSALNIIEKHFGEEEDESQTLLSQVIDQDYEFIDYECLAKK

Row | effect of a mutation on the interaction | Variant
6 | disrupting interaction strength | R157C

Variants of: B4
Conditions: with ima3_human KPNA4, O00629
Remark: another data set of the same source

Row | effect of a mutation on the interaction | Variant
7 | decreasing interaction strength | R157C
